Test results as given in patent US20250163117A1 (CURE GENETICS, published 2025).

What was measured:
[1] = target: T1, mouse high-affinity IL-2 receptor IL-2Rαβγ on cells (mouse, UniProt P01590 22-268; P16297 27-539; P34902 23-369); test: cell-based or functional assay
T1 sequence (looked up) 1: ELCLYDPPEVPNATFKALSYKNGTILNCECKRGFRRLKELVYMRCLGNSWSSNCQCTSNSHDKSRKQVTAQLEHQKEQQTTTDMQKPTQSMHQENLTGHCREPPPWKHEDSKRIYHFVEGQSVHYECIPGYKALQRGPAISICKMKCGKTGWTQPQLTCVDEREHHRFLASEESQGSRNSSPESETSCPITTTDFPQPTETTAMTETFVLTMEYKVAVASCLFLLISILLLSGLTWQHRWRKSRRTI
T1 sequence (looked up) 2: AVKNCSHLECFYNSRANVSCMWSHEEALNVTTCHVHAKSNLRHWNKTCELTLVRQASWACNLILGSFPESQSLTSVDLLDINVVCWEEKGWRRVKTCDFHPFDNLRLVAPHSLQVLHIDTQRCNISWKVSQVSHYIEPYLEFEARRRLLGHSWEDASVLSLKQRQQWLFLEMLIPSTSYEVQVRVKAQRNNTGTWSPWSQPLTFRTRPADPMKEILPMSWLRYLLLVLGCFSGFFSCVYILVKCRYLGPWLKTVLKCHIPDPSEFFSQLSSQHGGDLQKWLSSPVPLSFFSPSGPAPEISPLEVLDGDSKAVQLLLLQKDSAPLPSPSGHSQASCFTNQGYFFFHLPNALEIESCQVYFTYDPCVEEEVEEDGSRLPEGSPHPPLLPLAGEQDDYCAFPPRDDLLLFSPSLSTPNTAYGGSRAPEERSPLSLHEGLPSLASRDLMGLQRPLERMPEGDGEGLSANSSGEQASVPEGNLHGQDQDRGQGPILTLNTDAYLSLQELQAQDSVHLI
T1 sequence (looked up) 3: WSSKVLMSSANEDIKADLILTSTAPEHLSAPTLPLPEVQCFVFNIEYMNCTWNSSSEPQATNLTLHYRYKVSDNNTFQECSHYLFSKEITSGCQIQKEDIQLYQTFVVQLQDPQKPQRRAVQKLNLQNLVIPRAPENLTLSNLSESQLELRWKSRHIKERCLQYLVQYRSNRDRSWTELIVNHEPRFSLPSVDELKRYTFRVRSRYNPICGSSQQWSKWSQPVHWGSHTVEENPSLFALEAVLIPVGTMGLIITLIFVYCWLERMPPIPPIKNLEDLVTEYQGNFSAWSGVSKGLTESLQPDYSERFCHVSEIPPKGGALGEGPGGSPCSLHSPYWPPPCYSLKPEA

[2] = target: T2, mouse intermediate-affinity IL-2 receptor IL-2Rβγ on cells (mouse, UniProt P16297 27-539; P34902 23-369); test: cell-based or functional assay
T2 sequence (looked up) 1: T1 sequence (looked up) 2
T2 sequence (looked up) 2: T1 sequence (looked up) 3

[3] = target: T3, Human IL-2RA (IL-2Rα/CD25) protein (human, UniProt P01589 22-217, limits assumed); test: SPR (Biacore, receptor immobilised on CM5 chip, IL-2 as analyte)
T3 construct: Receptor protein used as SPR ligand
T3 sequence (looked up): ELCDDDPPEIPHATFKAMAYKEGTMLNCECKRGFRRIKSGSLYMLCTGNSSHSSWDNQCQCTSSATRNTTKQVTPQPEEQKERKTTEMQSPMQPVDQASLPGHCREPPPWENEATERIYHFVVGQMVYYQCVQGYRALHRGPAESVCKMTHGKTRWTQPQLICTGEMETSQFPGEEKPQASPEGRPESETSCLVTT
Protocol: (§1) The human IL-2 receptors used in this study included IL-2Rα/CD25, IL-2Rβ/CD122, common γ receptor/CD132, IL-2Rβ&IL-2Rγ heterodimer protein, and IL-2Rβ&IL-2Rα&IL-2Rγ protein. The IL-2 receptor proteins were immobilized on a Biacore™ sensor chip CM5 according to manufacturer's protocol. […] The resulting sensorgrams were analyzed with the native instrument software to calculate the binding affinities.

[4] = target: T4, Human IL-2RB (IL-2Rβ/CD122) protein (human, UniProt P14784 27-239); test: as above
T4 construct: Receptor protein used as SPR ligand
T4 sequence (looked up): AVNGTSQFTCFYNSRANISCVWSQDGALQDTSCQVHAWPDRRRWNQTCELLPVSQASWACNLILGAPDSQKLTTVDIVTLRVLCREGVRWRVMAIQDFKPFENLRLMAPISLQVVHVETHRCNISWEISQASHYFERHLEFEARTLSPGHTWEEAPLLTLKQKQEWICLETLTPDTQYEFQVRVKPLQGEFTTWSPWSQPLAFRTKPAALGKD
Protocol: as §1

[5] = target: T5, Human IL-2RG (common γ receptor/CD132) protein (human, UniProt P31785 23-262, limits assumed); test: as above
T5 construct: Receptor protein used as SPR ligand
T5 sequence (looked up): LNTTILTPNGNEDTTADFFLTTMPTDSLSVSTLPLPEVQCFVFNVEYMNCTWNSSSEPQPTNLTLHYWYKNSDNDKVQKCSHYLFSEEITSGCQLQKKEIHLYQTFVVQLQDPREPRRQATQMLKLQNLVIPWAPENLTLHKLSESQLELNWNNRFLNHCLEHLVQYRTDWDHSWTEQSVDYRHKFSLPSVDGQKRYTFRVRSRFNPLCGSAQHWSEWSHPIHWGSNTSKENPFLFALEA
Protocol: as §1

[6] = target: T6, Human IL-2Rβ&IL-2Rγ heterodimer protein (human, UniProt P14784 27-239; P31785 23-262, limits assumed); test: SPR (Biacore, receptor on CM5 chip, IL-2 as analyte), 1:1 binding
T6 construct: Heterodimer protein used as SPR ligand; also called IL-2Rβγ; Human IL-2RB&G
T6 sequence (looked up) 1: T4 sequence (looked up)
T6 sequence (looked up) 2: T5 sequence (looked up)
Protocol: as §1

[7] = target: T7, Human IL-2Rβ&IL-2Rα&IL-2Rγ protein (human, UniProt P14784 27-239; P01589 22-217; P31785 23-262, limits assumed); test: as above
T7 construct: Trimeric receptor protein used as SPR ligand; also called IL-2Rαβγ; Human IL-2RB&IL-2RA&IL-2RG
T7 sequence (looked up) 1: T4 sequence (looked up)
T7 sequence (looked up) 2: T3 sequence (looked up)
T7 sequence (looked up) 3: T5 sequence (looked up)
Protocol: as §1

% pSTAT5 in mouse splenocytes at Low IL-2v concentration (2.5 nM per paragraph 254); western blot, pSTAT5/STAT5 normalised to 001 High [1]: 22.8%
% pSTAT5 in mouse splenocytes at High IL-2v concentration (25 nM per paragraph 254); western blot, pSTAT5/STAT5 normalised to 001 High [2]: 126%
binding result [3]: no binding (tested: 0.977-250 nM)
binding result [4]: no binding (tested: 7.813-250 nM)
binding result [5]: no binding (tested: 0.977-500 nM)
Kd [6]: 0.467 nM
koff [6]: 0.00106 s⁻¹
kon [6]: 2.28e+06 M⁻¹ s⁻¹
Kd [7]: 0.575 nM
koff [7]: 0.000732 s⁻¹
kon [7]: 1.27e+06 M⁻¹ s⁻¹
B1: CP-trIL-2 012 (ligand)
chain: PTSSSTKKTQLQLEHLLLDLQMILNGINNYKNPLRPRDLISNINVIVLELKGSETTELKHLQSLEEELKDLEEVLNLAQSKNFHTIVEFLNRWITFSQSIISTLT
notes: H1-H3-H2-H4; loops 1 and 2 removed; de-Ala1, C58S, C125S, P65D
